Here are results for one substance from US11607390B2, “Self-righting systems and related components and methods” (priority 2017, dated 2023).

The data set deals with Micrococcus lysodelkticus cells. Description: Lysozyme enzyme activity assay. It counts as biochemical. The settings on record: micropost tips 80% lysozyme, 20% PEO 200k vs uncompressed. As to the method: […] assays were performed on the dissolved solution.
To measure the activity of lysozyme, the assay provided by Sigma Aldrich was used which measures the amount of lysed Micrococcus lysodelkticus cells. Briefly, a 200 unit/mL Lysozyme solution in 50 mM Potassium Phosphate Buffer was added to a 0.015% [w/v] Micrococcus lysodeiklicus cell suspension in the same buffer. The decrease was recorded in A450 over 5 minutes. Nine micropost tips were fabricated from 80% lysozyme and 20% PEO 200k and dissolved sets of three micropost tips together. Triplicate assays were performed on each dissolved solution for a total of nine tests and the results were compared to the results of a solution made with lysozyme that was not compressed into a micropost tip.

As to lysozyme, the “enzymatic activity after the manufacturing process” value was “maintain their activity”.
